What all share (test): SPR
In experiment [1] the target is UL141.
For experiment [2], the target named is UL141. This is another data set of the same source.
Experiment [3] addresses UL141. This is another data set of the same source.
The target of experiment [4] is UL141. This is another data set of the same source.
The target in experiment [5] is T1, TRAIL-R2-Fc M152A/R154A/K155A (human, UniProt O14763 58-184).
T1 chain: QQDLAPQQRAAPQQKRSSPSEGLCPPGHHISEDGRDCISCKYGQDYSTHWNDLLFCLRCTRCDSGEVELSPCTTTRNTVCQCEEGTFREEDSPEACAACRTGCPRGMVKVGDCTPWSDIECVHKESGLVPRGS

Numbering of substitutions follows the chain as printed. Names may count otherwise. Where two headings read alike, the source gives them in different places.

B1: TRAIL-R2-Fc F112A (Fc fusion)
chain: T1 chain with F55A, A95M, A97R, A98K
As to B1, the Kd in the experiment with UL141 [1] was found to be 630 nM.

B2: TRAIL-R2-Fc L110A/L114A (Fc fusion)
chain: T1 chain with L53A, L57A, A95M, A97R, A98K
B2 displayed a Kd in the experiment with UL141 [1] of 43 nM. Compared with the last molecule, the Kd is about 15-fold lower.

B3: TRAIL-R2-Fc V167A (Fc fusion)
chain: T1 chain with A95M, A97R, A98K, V110A
In turn, B3 gave an equilibrium dissociation constant (Kd) in the experiment with UL141 [1] of 15 nM.

B4: TRAIL-R2-Fc (human TRAIL-R2 aa 58-184, thrombin site, human IgG1 Fc), wild type (Fc fusion)
chain: T1 chain with A95M, A97R, A98K
Take B4: the Kd is 6 nM in the experiment with UL141 [1] and 5.96 nM with UL141 [2].

B5: TRAIL-R2-Fc E78A/D109A (Fc fusion)
chain: T1 chain with E21A, D52A, A95M, A97R, A98K
With B5, the dissociation constant Kd with UL141 [3] is 60 nM.

B6: TRAIL-R2-Fc P150A (Fc fusion)
chain: T1 chain with P93A, A95M, A97R, A98K
As to B6, the dissociation constant (Kd) with UL141 [1] came out at 8 nM. This lies in the single-digit nanomolar range.

B7: TRAIL-R2-Fc K155A (Fc fusion)
chain: T1 chain with A95M, A97R
For B7, binding with UL141 [4] was characterised by a dissociation constant (Kd) of 8 nM.

B8: TRAIL-R2-Fc M152A (Fc fusion)
chain: T1 chain with A97R, A98K
Regarding B8, the Kd in the experiment with UL141 [4] was 7 nM.

B9: TRAIL-R2-Fc D148A (Fc fusion)
chain: T1 chain with D91A, A95M, A97R, A98K
As to B9, in the experiment with UL141 [1], the affinity, expressed as Kd, was 55 nM.

B10: TRAIL-R2-Fc R154A (Fc fusion)
chain: T1 chain with A95M, A98K
In the case of B10, in the experiment with UL141 [4], binding was characterised by a dissociation constant (Kd) of 6 nM.

B11: TRAIL (TNFSF10) ectodomain (ligand)
chain: TNELKQMQDKYSKSGIACFLKEDDSYWDPNDEESMNSPCWQVKWQLRQLVRKMILRTSEETISTVQEKQQNISPLVRERGPQRVAAHITGTRGRSNTLSSPNSKNEKALGRKINSWESSRSGHSFLSNLHLRNGELVIHEKGFYYIYSQTYFRFQEEIKENTKNDKQMVQYIYKYTSYPDPILLMKSARNSCWSKDAEYGLYSIYQGGIFELKENDRIFVSVTNEHLIDMDHEASFFGAFLVG
On to B11, for which the dissociation constant (Kd) in experiment [5] worked out at 7 nM.

The values are drawn from patent US20170088600A1 (published 2017).
